From PMC3281905, “Structure-Based Rational Design of a Toll-like Receptor 4 (TLR4) Decoy Receptor with High Binding Affinity for a Target Protein” (PLoS ONE, 2012)

B2: myeloid differentiation protein 2 (MD2) (natural protein, human)
chain: QKQYWVCNSSDASISYTYCDKMQYPISINVNPCIELKRSKGLLHIFYIPRRDLKQLYFNLYITVNTMNLPKRKEVICRGSDDDYSFCRALKGETVNTTISFSFKGIKFSKGKYKCVVEAISGSPEEMLFCLEFVILHQPN
notes: human MD2 (myeloid differentiation protein 2); Secreted from insect cells with the vector pAcGP67; also called human MD2; source: monomeric MD2 from Superdex 75)

Tests used:
Experiment in all cases: SPR; Biacore 3000; decoy receptor or variant covalently immobilised on a CM5 chip (EDC/NHS, 500-800 RU); MD2 4 nM to 2 µM in HBS-EP injected at 60 µL/min for 90 sec, 30 min dissociation; 1:1 Langmuir model
Conditions in all cases: both partners purified
[1] = molecular target: B2
[2] = molecular target: TLR4 decoy receptor TV3 D181E (human | hagfish, UniProt O00206 27-228; O00206 27-228, D181E)
[3] = molecular target: TLR4 decoy receptor TV3 S184K (human | hagfish, UniProt O00206 27-228; O00206 27-228, S184K)
[4] = molecular target: TLR4 decoy receptor TV3 M41E (human | hagfish, UniProt O00206 27-228; O00206 27-228, M41E)
TLR4 decoy receptor TV3 M41E, sequence (O00206 other isoform, or with tags, fused parts or gaps M41E | M41E | M41E): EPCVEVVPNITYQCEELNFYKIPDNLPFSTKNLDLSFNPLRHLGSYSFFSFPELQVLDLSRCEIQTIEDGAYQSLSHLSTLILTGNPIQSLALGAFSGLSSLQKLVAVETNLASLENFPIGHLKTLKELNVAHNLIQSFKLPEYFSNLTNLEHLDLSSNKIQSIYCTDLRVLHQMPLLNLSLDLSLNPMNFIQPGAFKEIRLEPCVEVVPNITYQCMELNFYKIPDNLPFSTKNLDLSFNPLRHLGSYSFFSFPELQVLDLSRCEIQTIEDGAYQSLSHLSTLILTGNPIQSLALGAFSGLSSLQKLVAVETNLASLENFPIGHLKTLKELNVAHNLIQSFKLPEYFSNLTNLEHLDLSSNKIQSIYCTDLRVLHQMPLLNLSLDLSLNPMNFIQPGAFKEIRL

[5] = molecular target: TLR4 decoy receptor TV3 F63L (human | hagfish, UniProt O00206 27-228; O00206 27-228, F63L)
[6] = molecular target: TLR4 decoy receptor TV3 F63W (human | hagfish, UniProt O00206 27-228; O00206 27-228, F63W)
[7] = molecular target: TLR4 decoy receptor TV3 V132F (human | hagfish, UniProt O00206 27-228; O00206 27-228, V132F)
[8] = molecular target: TLR4 decoy receptor TV3 V134L (human | hagfish, UniProt O00206 27-228; O00206 27-228, V134L)
[9] = molecular target: TLR4 decoy receptor TV3 N156I (human | hagfish, UniProt O00206 27-228; O00206 27-228, N156I)
[10] = molecular target: TLR4 decoy receptor TV3 H159Q (human | hagfish, UniProt O00206 27-228; O00206 27-228, H159Q)
[11] = molecular target: TLR4 decoy receptor TV3 M41E/F63W (human | hagfish, UniProt O00206 27-228; O00206 27-228, M41E | F63W)
TLR4 decoy receptor TV3 M41E/F63W, sequence (O00206 other isoform, or with tags, fused parts or gaps M41E | F63W | M41E | F63W | M41E F63W): as the sequence (O00206 other isoform, or with tags, fused parts or gaps M41E | M41E | M41E) above, with F37W counted along it

[12] = molecular target: TLR4 decoy receptor TV3 M41E/H159Q (human | hagfish, UniProt O00206 27-228; O00206 27-228, M41E | H159Q)
TLR4 decoy receptor TV3 M41E/H159Q, sequence (O00206 other isoform, or with tags, fused parts or gaps M41E | H159Q | M41E | H159Q | M41E H159Q): as the sequence (O00206 other isoform, or with tags, fused parts or gaps M41E | M41E | M41E) above, with H133Q counted along it

[13] = molecular target: TLR4 decoy receptor TV3 F63W/V134L (human | hagfish, UniProt O00206 27-228; O00206 27-228, F63W | V134L)
[14] = molecular target: TLR4 decoy receptor TV3 F63W/D181E (human | hagfish, UniProt O00206 27-228; O00206 27-228, F63W | D181E)
[15] = molecular target: TLR4 decoy receptor TV3 V134L/H159Q (human | hagfish, UniProt O00206 27-228; O00206 27-228, V134L | H159Q)

B1: TLR4 decoy receptor, TV3 (wild-type) (designed binder)
chain: EPCVEVVPNITYQCMELNFYKIPDNLPFSTKNLDLSFNPLRHLGSYSFFSFPELQVLDLSRCEIQTIEDGAYQSLSHLSTLILTGNPIQSLALGAFSGLSSLQKLVAVETNLASLENFPIGHLKTLKELNVAHNLIQSFKLPEYFSNLTNLEHLDLSSNKIQSIYCTDLRVLHQMPLLNLSLDLSLNPMNFIQPGAFKEIRLKELALDTNQLKSVPDGIFDRLTSLQKIWLHTNPWDCSCPRIDYLSRWLNKNSQKEQGSAKCSGSGKPVRSIICP
modifications: limits from the PDB 2Z65 entity (paper residue number = entity position + 26); secreted from insect cells, immobilized by amine coupling
Kd [1]: 78 nM
koff [1]: 0.00222 s⁻¹
kon [1]: 28400 M⁻¹ s⁻¹

B2
Kd [2]: 48.2 nM
koff [2]: 0.000924 s⁻¹
kon [2]: 19100 M⁻¹ s⁻¹
Kd [3]: 183 nM
koff [3]: 0.00141 s⁻¹
kon [3]: 7660 M⁻¹ s⁻¹
Kd [4]: 3.21 nM
koff [4]: 5.29e-05 s⁻¹
kon [4]: 16400 M⁻¹ s⁻¹
Kd [5]: 43.3 nM
koff [5]: 0.00115 s⁻¹
kon [5]: 26500 M⁻¹ s⁻¹
Kd [6]: 2.84 nM
koff [6]: 3.97e-05 s⁻¹
kon [6]: 13900 M⁻¹ s⁻¹
Kd [7]: 22.2 nM
koff [7]: 0.00154 s⁻¹
kon [7]: 69100 M⁻¹ s⁻¹
Kd [8]: 4.11 nM
koff [8]: 0.00011 s⁻¹
kon [8]: 26700 M⁻¹ s⁻¹
Kd [9]: 4.07 nM
koff [9]: 8.05e-05 s⁻¹
kon [9]: 19700 M⁻¹ s⁻¹
Kd [10]: 4.3 nM
koff [10]: 1e-05 s⁻¹
kon [10]: 2140 M⁻¹ s⁻¹
Kd [11]: 0.026 nM
koff [11]: 5.23e-07 s⁻¹
kon [11]: 20100 M⁻¹ s⁻¹
Kd [12]: 145 nM
koff [12]: 0.000461 s⁻¹
kon [12]: 3160 M⁻¹ s⁻¹
Kd [13]: 283 nM
koff [13]: 0.00103 s⁻¹
kon [13]: 3660 M⁻¹ s⁻¹
Kd [14]: 39 nM
koff [14]: 2.27e-05 s⁻¹
kon [14]: 583 M⁻¹ s⁻¹
Kd [15]: 0.138 nM
koff [15]: 6.12e-06 s⁻¹
kon [15]: 44100 M⁻¹ s⁻¹
